From publication PMC8885691, “Leveraging the multivalent p53 peptide-MdmX interaction to guide the improvement of small molecule inhibitors” (Nature Communications, 2022)
pKd: −log10 of the molar value.

Target: p53-binding domain of human MdmX (N-MdmX, amino acids 22-110) (human) (UniProt O15151)
Experiment: ITC; ITC-200 at 25 °C; 19 injections of 2.0 µL of ~0.2 mM ligand into ~10–20 µM protein in the cell; one-set-of-binding-sites model

p53-binding domain of human MdmX (N-MdmX, amino acids 22-110) (human), sequence (O15151 22-110): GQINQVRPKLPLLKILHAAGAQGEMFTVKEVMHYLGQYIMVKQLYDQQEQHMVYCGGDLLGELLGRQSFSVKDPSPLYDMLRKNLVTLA

- pKd: 6.44
Substance: p53 transactivation domain peptide (p53p)
